Measurements published in article PMC2832797 (Biochemistry, 2010).

Target: N-terminal His-tagged ubiquitin (15N-labelled) (UniProt P0CG48 1-76, 15N-labelled)
Assay: NMR titration

- Kd: > 100 µM
B1: N-terminal His-tagged human alpha4 (amino acid residues 1-222) (domain or fragment, UniProt P78318 1-222, looked up)
chain: MAAEDELQLPRLPELFETGRQLLDEVEVATEPAGSRIVQEKVFKGLDLLEKAAEMLSQLDLFSRNEDLEEIASTDLKYLLVPAFQGALTMKQVNPSKRLDHLQRAREHFINYLTQCHCYHVAEFELPKTMNNSAENHTANSSMAYPSLVAMASQRQAKIQRYKQKKELEHRLSAMKSAVESGQADDERVREYYLLHLQRWIDISLEEIESIDQEIKILRERD
